Experiments:
[1] = target: catalytic domain of Sst2 (residues 245–435), Sst2^cat (S. pombe) (UniProt Q9P371); test: ITC
[2] = target: Sst2^catD354A (Asp354Ala mutant of the catalytic domain of Sst2) (S. pombe) (UniProt Q9P371); test: ITC
Sst2^catD354A (Asp354Ala mutant of the catalytic domain of Sst2) (S. pombe), sequence (Q9P371 245-435 D354A): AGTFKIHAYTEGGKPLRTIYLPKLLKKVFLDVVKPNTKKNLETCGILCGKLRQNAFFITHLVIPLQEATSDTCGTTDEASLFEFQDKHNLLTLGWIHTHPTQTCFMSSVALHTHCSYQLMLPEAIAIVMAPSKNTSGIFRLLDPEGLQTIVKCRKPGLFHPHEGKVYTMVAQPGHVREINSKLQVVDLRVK

catalytic domain of Sst2 (residues 245–435), Sst2^cat (S. pombe), sequence (Q9P371 245-435): as the sequence (Q9P371 245-435 D354A) above, with A110D counted along it

dH [1] [kcal/mol] | Kd [2] [nM] | dH [2] [kcal/mol] | Substance
11.9 |  |  | ubiquitin (from a pRSETA plasmid, for isothermal titration calorimetry) (from UniProt P0CG48 1-76) (natural protein)
 | 1100 | 11.8 | Lys63-linked diubiquitin, enzymatically synthesized from Lys63Arg and Asp77 ubiquitin mutants

Reference: PMC4033627
